Data taken from a protein production outcome set (Wang et al. 2014).

Assay: label from the status in PepcDB records

Sequence	protein production
MAEAVERTDELVREYLLFRGFTHTLRQLDAEIKADKEKGFRVDKIVDQLQQLMQVYDLAALRDYWSYLERRLFSRLEDIYRPTINKLKTSLFRFYLVYTIQTNRNDKAQEFFAKQATELQNQAEWKDWFVLPFLPSPDTNPTFATYFSRQWADTFIISLHNFLSVLFQCMPVPVILNFDAECQRTNQVQEENEVLRQKLFALQAEIHRLKKEEQQQEEEAAALVQHKLPPYVSSMDRLGDSELALVCSQRPASLSQSPRVGFLSSLLPQSKKSPSRLSPAQGPPQAQSSAKKDSFSSQATKGKDSVPGAKDGKSLLSGPVPGEASWTHQRQRRLQDHGKERRELLSTSSSQSQCAERKPEVSGAEAEPCLELHMGPVEVLARVSTAGSEGDRPEQPFIVLSQEEYGEHHSSIMHCRVDCSGRRVASLDVDGVIKVWSFNPIMQTKASSISKSPLLSLEWATKRDRLLLLGSGVGTVRLYDTEAKKNLCEININDDMPRILSLACSPNGASFVCSAAAPSLTSQTDSSAPDIGSKGMNQVPGKLLLWDTKTMKQQLQFSLDPEPIAINCTAFNHNGNLLVTGAADGVIRLFDMQQHECAMSWKAHCGEVYSVEFSCDENAVYSIGEDRKFIQWNIHKSGLKVSESNLPSDATGPFVLSGYSGYKQVQVPRGRLFAFDSEGNYMLTCSATGGLIYKLGSEEKVLENCLSLGGHRAPVVTVDWSTAMDCGTCLTASMDGKIKLTTLLAHKL	failed
MLINKTKRAEQNLNNLPFLALQAEQIEFLGSSAEFKTQIIELIRNAKKRIYVTALYWQKDEAGQEILDEIYRVKQENPHLDVKVLIDWHRAQRNLLGAEKSATNADWYCEQRQTYQLPDDPNMFFGVPINTREVFGVLHVKGFVFDDTVLYSGASINNVYLHQFEKYRYDRYQKITHAELADSMVNFINDYLLDFSAVYPLDVTNRPRTKEIRGNIRAYRKDLAQNGEYSLKSAVKLPNVLSVSPLFGLGASGNELNQVIEDLFLQVQKKLVICTPYFNFPRTLQHKIATLLENGKRVEIIVGDKVANDFYIPPEQPFKMAGALPYLYESNLRRFCEKFETQIESGQLVVRLWRDGDNTYHLKGVWVDDRYILLTGNNLNPRAWRLDAENGLLIYDPQQQLLAQVEKEQNQIRQHTKVLKHYTELEELNQYPEPVQKLLKKFARIKADKLVKMILLEHHHHHH	not failed
MAAQALLSVGERRLLRGVDEQRALGAALARALAPGSVLFLEGELGAGKTTLTQGLLAALGFDGHVTSPTYALMQLYPASAGQVLHVDAYRVRDVAELYEMDLDELIAGSRLSVIEWGEGLYADYPQAPIYLFEHVEGDPETRRVTRRRLEHHHHHH	failed
MAKSLTFSTFSPNNTLKKNVIPIVLLHGWGLNSGVWQPLLELFHRNDESIYQLITIDLPGFGINSAVDIKPYSLANICHHIEQVIDQPAIYLGWSLGGLIATEMSLKYPEKVLASITVASSPYFVEQPTDNWPGIKENVLESFHKQLAQDTAKTISGFLKIQAMGSPHIRQDLKLITQLVMAHTLPSQQTLADSLALLSNSDLRLHLSKIKQPLLRLYGHNDSLVPKEVMEKISYLAPNSDQHLFADASHAPFISHLDDFYQVLVVWLDSHFNLEHHHHHH	failed
MIRERSINLGHQVEGAIFTRHNHIVSVDGDGILSFQNNITKVKPNEAIFIPSKVMVRFSFNSNENKSIKVSLYHINGINLNCKQDKVTSLINAYIEVEKLNLTNRETIIELIGSRLEKIKNNRVLYNYDPLEKKIYRLVSKDLKKKWSLEEVCKLTYTSKSTLNRKLKDNQTSMGQIISNARLDYATILITNTSLSVDEISMLSGFNSTSYFCKKFKESHGFSPKQYRKLLAYNQVPLNRI	failed
MCDRTSKNENRILTISALLASGFAAGGMVLGLLVGSIVIVFDGVYSLVSLLLTLLSLAASSYISKPSKSVFPFGKAVLEPIVIAIKAAVILVVVCFSLYSAISALMTGGREVDTSIATIFGLVNVIGCGYAWWFMAKKSRRFSSGLIDAEKKQWQMDTLLSVAVTVGFIAAWLVSLTPFAHYAVYADPMMMLLMGFYFLKVPFDMLCGALRELLMMTPSKELCQVVGNDVLEIEKVSDHQLKLAGITKVGQELRVNIDLHVDDDMIELDTLEQTRKQLTTRLSKHRFKLQLNLNVANC	failed
MSLPPSRPETLSIPEALHRAHAHWSAGQAAQAELLCQRVLAAWPGQADALHLLGLMAHAYGHLDLAIAHLRQACLAPRAPAAYSSNLAEMYRQKGLLAEAEDAARRAVAMDPALVSGWNNLGIVLQEAGKFAESLDCLERVILLQPDGAQAHNNLANTLRRLERLERAESHYRQALELDPAYAEAHSNLAFLLSAQGRHDEAAAAAQHAIELSPRLVDAYLNLAEAEMGRHRHEAALRVLDTLSTFAPQHPAALTARANVLKRVERLDEALAVARQAVVLAPRSAEAHHALAMALQTLGQTDEALPHFEQAARLPGAVAEEALVGRATLLMEAGRRDAARAAFDQALEQFPGSVQALAGRADARTFTAGDPDIAALEACLAEGERRSLRDRISAHFALGKAYLDLQDPARAFHHLDAGNRQKRSTFTYDGAASRRWMERIAEAFPPERHDPLHATGEPSALPVFIVGMPRSGTTLIEQIVSSHPQVMGAGELSALRLVVEGSGLFPDGMQRLAGEARGALFRQLGQAYLSRVAPLAQGRARLVDKMPSNFLYARLIPLILPGARIIHARRDPVDTCLSCYTKLFAGEQQFAYDQAELGALYRGYARLMAHWRAVLPPGCFIEVDYEAVVDDLEGEARRLIDFLDLPWNPACLHFHDNRRVVRTASVNQVRQPIYTTSKGRWQAYADYLGPLLEALGVEAP	failed
MIHSRTILVPTLLFQLALALPLAAGADSRCDDAKRLAATIPVQADGDTTRKTEDVVLESCADGAAGYFVRGLRAERAGRHDEAIKDYREALRLEPAFPRAQGNLGLALLAKGSHDDAVVELTRAISSDPDPGYHHGLAMIFGQRKIYSLALYHYAEAAKGLPADPVIPTELAALYREMGKVSDAEKQYRKALSLSPSHEEARVGLASLYMAEGRTDRAIEELKQAQIASPGNKEVSSLLAEAYEKKGDRQAADYQSLLAGKQRGVLSDERLRRGDELMQAKEYAKAAEEFKAALREKPDWPEALMRLAEAQTAAGFDDEAITSYKELIRLKLGTGDTHYNLGVLYERKGLIDEAVVEYKQAIHSSPDNGDARRRLADIYALRGSYPQAIEQYRELLKKGDNNPVLHLKLARALLGAKNPKEAMASYQDALKIAPDNLEARRELAALYRKGNQNEEAEKQYKEILRIKKDDAEARNILTALYVKSKKYDELITLLKDGVELAPNDPASHYKLGLIYEFKKDYDAAEQEYKKAVELKGDHAKSLNALGRIYLKTGKISEAKGALEAAKKADPGMEETAVLLSNIKEELSPEPPRYSKKGRKGKASKEAKKSRASKKKSSKKGAKATSKKSSTKSGGKAKKAKKSH	failed
MAKHVIIGAGSIGTNVARLLAEGGESVRIVTRSGSGPEHPLVDRVAADASDPSRLTELSRGAGVIYHCANPPSYTVWERLLPPLQTAAITAAKANDAVLALTGSLYAYGPQPGGRMNEHTPMAATGHKGRLRRRMWEQALAGGIRTVEVRGSDYIGKDANGIYSLLIKSALQKGKAAWITGHLDMPHTFTFNGDMAQALITLASEERAWGRPWHVPSAPAVTIRELARRYAVAAGRPPIKLIQIPRSVTRTAGLIVPIAREMAEMDYQWYAPFHMDATETTETFGLTATDLDTAVRNEVG	failed
GQLDLLRSNTGLLYRIKDSQNAGKMKGSDNQEKLVYQIIEDAGNKGIWSRDVRYKSNLPLTEINKILKNLESKKLIKAVKSV	not failed
MPRSTWFKALLLLVALWAPLSQAETGWQPIQETIRKSDKDNRQYQAIRLDNGMVVLLVSDPQAVKSLSALVVPVGSLEDPEAYQGLAHYLEHMSLMGSKKYPQADSLAEYLKMHGGSHNASXAPYRTAFYLEVENDALPGAVDRLADAIAEPLLDKKYAERERNAVNAELTMARTRDGMRMAQVSAETINPAHPGSKFSGGNLETLSDKPGNPVQQALKDFHEKYYSANLMKAVIYSNKPLPELAKMAADTFGRVPNKESKKPEITVPVVTDAQKGIIIHYVPALPRKVLRVEFRIDNNSAKFRSKTDELITYLIGNRSPGTLSDWLQKQGLVEGISANSDPIVNGNSGVLAISASLTDKGLANRDQVVAAIFSYLNLLREKGIDKQYFDELANVLDIDFRYPSITRDMDYVEWLADTMIRVPVEHTLDAVNIADRYDAKAVKERLAMMTPQNARIWYISPKEPHNKTAYFVDAPYQVDKISEQTFADWQQKAANIALSLPELNPYIPDDFSLIKSEKKYDHPELIVDESNLRVVYAPSRYFSSEPKADVSLILRNPKAMDSARNQVMFALNDYLAGLALDQLSNQASVGGISFSTNANNGLMVNANGYTQRLPQLFQALLEGYFSYTATEDQLEQAKSWYNQMMDSAEKGKAFEQAIMPAQMLSQVPYFSRDERRKILPSITLKEVLAYRDALKSGARPEFMVIGNMTEAQATTLARDVQKQLGADGSEWCRNKDVVVDKKQSVIFEKAGNSTDSALAAVFVPTGYDEYTSSAYSSLLGQIVQPWFYNQLRTEEQLGYAVFAFPMSVGRQWGMGFLLQSNDKQPSFLWERYKAFFPTAEAKLRAMKPDEFAQIQQAVITQMLQAPQTLGEEALKLSKDFDRGNMRFDSRDKIVAQIKLLTPQKLADFFHQAVVEPQGMAILSQISGSQNGKAEYVHPEGWKVWENVSALQQTMPLMSEKNE	failed
MRIETDRLVIRDFEERDAERLYDYLANPPVRCFLDEKINSYDEALRKIRERQGQSDQGDFYAVCLKNAEWLIGEVFWVKEEPDTYSIGWNFNLNYGGKGYATEAVKAAIEELFRGGARRIYAYVEEDNLPSQRLCDRLGMRREGLFLEFISFINNPDGSPRYENTYQYAILKREWLGEGKAT	failed
MDVKKDENSILENMKQEINHSLKEEAQEEEEILKKRISSHPLYGLLLHSHLNCLKVCSGDFDSPEIMNTADDLALSKLSLHPDSSSEATSSELDQFMVLFFFSPCQNIFTQQKTTFHVLLFFPLQINLTFKYSKFILPRKKQ	failed
MTYVYRKNPVAAATVTVKYIDTQGNSISDSIPLSGNVDQEYTTEQKIISGYTFKEVQGNKSGLFSTTPQTVTYIYTKNPIEIKTGTVTIKYVDTNGNSISDEITKSGNVGSLYTSEQKKILGYNFKEIQGIAEGQFTIESQTVTYVYTKISTPTIIKTSVIPPKTLSVKTLPKESLPETGDKFFGFTLLSGSLLILVSTTLYLLKSRKYK	failed
MASIQKLGNGWRYRVSYKDAGKYKTKTKGGFRTKKECELAAAELEKKLHVGMDISAGDRLFAEYMRTWFELYQNGKHSPEHDRNIERSVKLVEEHFPGVKMKELTREMYQKFINEISPKYATDTVKKRHTYIKACLQEAIQEGIIFKDPTYKVIIKGKKDTKNEELKYLNFNEVQKLVAETKKDLRPRYISRYVILFAIATGARFSEIMGITWDCVDFKNRTITINKTWDFKDTNDFSDTKNYASKRTITIDTETVDMLQTLKSEQNKKALQTGLRNKKNLVFVNTKMQLVSNNAVNKTLRTLCKAAKIKEITCHGLRHTHASMLLYKGVNIKYISRRLGHKDIVTTLQTYSHILDEMEQVESRVVDDTMKEIHGAKFVQKNF	failed
MVNFAVWLDGVILKIDLTDSLYKIYKGDQISLPITYEVNDDWIKVYDRIREANLAILSPYDEITTKAILERINLKPTYVIANRGKTKPSREPYRILIEVTGWDPLQVVTLASSPLDLLSARFFDSRIKVICVKRYQDCSKYSPFLYSENLDDAISSLKRLKIIR	failed
MNTHQNRYSVQSKVSALINCRLFQSFITTVIVLNAISIGLETYAFFKPYQKVFFIVDCLFLTIFVIELSLKLFVQKQHFFKNNWNVFDFVIVAGSLILYNTNFVSVLRIFRVLRVLRTITSVPSLRRIVNALFMAIPTISSVIILMSIIFYVYAVIGTMFFSAIAPEYFGNLQLSLLTLFQTFTLESWASGIFRPIFAESGWSWLYFVSFIVIATFIMINLIVGEIVNNAQKISQEIEDETGELKEDTKEIKELRAEVKELKALLQTYITQNEKKD	failed
MNYVELLGYLAMLLVGLSFLMKDVIKLRFVNALGCICFSIYGILIGSFPVAALNGFVACTNIYFLINNNKD	failed
